Patent US20130174289A1, “Na+/Mg2+ Exchanger” (FBN - Leibnitz-Institut fur Nutztierbiologie, priority 2010, published 2013)

Target: T1, SLC41A1 (Homo sapiens, UniProt Q8IVJ1)
T1 construct: split-ubiquitin half (bait fusion); expressed in transfected cells
Assay: Split-ubiquitin screen for SLC41A1 complex-forming partners
Type: binding
Conditions: for occurrence: frequency of occurrence = number of clones that revealed interaction with SLC41A1
Text: These SLC41A1 complex-forming partners were screened out by the split-ubiquitin method, which is well known in the art and are listed in detail in Table 1. The ubiquitin-based split protein sensor (USPS) is the method that makes it possible to detect and monitor protein-protein interactions as a function of time, at the natural sites of these interactions in a living cell. Details on the method can be found in Johnsson and Varshaysky, 1994.
In order to shorten the table, multiple entries were deleted and only the frequency of occurrence (Occurrence) is indicated as a number. The singletons listed in Table 2 are the weakest partners. They are organized from the strongest to the weakest.
In the above tables 1 and 2 underlined names indicate highly connected proteins, found in the majority of DUALmembrane SU-YTH screens. Highly connected proteins include chaperones, stress-induced endoplasmatic reticulum proteins, components of the translocon machinery and proteins involved in membrane protein sorting and transport.

T1 sequence (Q8IVJ1 whole entry, the tested form may be a part): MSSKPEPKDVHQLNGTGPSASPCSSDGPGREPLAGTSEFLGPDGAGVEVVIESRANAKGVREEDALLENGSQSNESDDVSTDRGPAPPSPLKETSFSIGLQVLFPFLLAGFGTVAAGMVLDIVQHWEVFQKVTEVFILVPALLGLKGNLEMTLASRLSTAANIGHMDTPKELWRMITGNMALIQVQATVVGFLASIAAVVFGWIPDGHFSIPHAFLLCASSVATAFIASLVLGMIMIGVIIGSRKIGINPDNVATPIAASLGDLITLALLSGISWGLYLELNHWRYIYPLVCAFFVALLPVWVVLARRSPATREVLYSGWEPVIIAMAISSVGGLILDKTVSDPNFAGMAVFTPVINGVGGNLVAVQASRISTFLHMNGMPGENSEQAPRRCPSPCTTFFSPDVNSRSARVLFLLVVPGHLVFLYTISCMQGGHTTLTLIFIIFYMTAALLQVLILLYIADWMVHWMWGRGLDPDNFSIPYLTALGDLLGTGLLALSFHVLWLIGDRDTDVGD

occurrence	clones identified with interaction with SLC41A1 (split-ubiquitin screening)	Molecule
2		Protein YIPF6 OS = Homo sapiens: SLC41A1 complex-forming partner from split-ubiquitin screen; GN = YIPF6 (protein, UniProt Q96EC8 2-236, looked up) Protein YIPF6: AEAEESPGDPGTASPRPLFAGLSDISISQDIPVEGEITIPMRSRIREFDSSTLNESVRNTIMRDLKAVGKKFMHVLYPRKSNTLLRDWDLWGPLILCVTLALMLQRDSADSEKDGGPQFAEVFVIVWFGAVTITLNSKLLGGNISFFQSLCVLGYCILPLTVAMLICRLVLLADPGPVNFMVRLFVVIVMFAWSIVASTAFLADSQPPNRRALAVYPVFLFYFVISWMILTFTPQ
	Ten	B-cell receptor-associated protein 31 OS = Homo sapiens: SLC41A1 complex-forming partner from split-ubiquitin screen; GN = BCAP31 (protein) MSLQWTAVATFLYAEVFVVLLLCIPFISPKRWQKIFKSRLVELLVSYGNTFFVVLIVILVLLVIDAVREIRKYDDVTEKVNLQNNPGAMEHFHMKLFRAQRNLYIAGFSLLLSFLLRRLVTLISQQATLLASNEAFKKQAESASEAAKKYMEENDQLKKGAAVDGGKLDVGNAEVKLEEENRSLKADLQKLKDELASTKQKLEKAENQVLAMRKQSEGLTKEYDRLLEEHAKLQAAVDGPMDKKEE
1		3-beta-hydroxysteroid-Delta(8), Delta(7)-isomerase OS = Rattus norvegicus: SLC41A1 complex-forming partner from split-ubiquitin screen; GN = Ebp (protein, UniProt Q9JJ46 2-230, looked up) 3-beta-hydroxysteroid-Delta(8) …: TTNMLPLHPYWPRHLRLDNFVPNDLPTWHILVGLFSFSGVLIVITWLLSSRVSVVPLGTGRRLALCWFAVCTFIHLVIEGWFSFYHEILLEDQAFLSQLWKEYSKGDSRYILSDGFIVCMESVTACLWGPLSLWVVIAFLRHQPFRFVLQLVVSVGQIYGDVLYFLTELRDGFQHGELGHPLYFWFYFVIMNAIWLVIPGILVFDAIKHLTNAQSMLDNKVMKIKSKHN
